Experimental data: US8226935 (dated 2012)

T1: heregulin (125I-HRG) (human, UniProt Q02297)
T1 chain: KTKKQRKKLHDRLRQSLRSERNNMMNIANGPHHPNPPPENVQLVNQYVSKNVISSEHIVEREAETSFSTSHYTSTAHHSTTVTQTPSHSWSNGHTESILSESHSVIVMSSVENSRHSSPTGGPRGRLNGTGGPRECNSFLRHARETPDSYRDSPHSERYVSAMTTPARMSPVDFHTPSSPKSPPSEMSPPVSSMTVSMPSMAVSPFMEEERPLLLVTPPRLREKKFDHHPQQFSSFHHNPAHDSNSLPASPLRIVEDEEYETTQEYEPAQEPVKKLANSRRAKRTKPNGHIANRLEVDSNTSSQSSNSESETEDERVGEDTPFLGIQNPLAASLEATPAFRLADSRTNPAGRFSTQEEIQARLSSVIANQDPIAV


Target: T1, heregulin (125I-HRG)
Test: other 125I-HRG radioligand binding, Scatchard

Kd [nM] | Binder
4.98 | ErbB4-IgG (antibody, homodimeric ECD-human IgG Fc immunoadhesin) QSVCAGTENKLSSLSDLEQQYRALRKYYENCEVVMGNLEITSIEHNRDLSFLRSVREVTGYVLVALNQFRYLPLENLRIIRGTKLYEDRYALAIFLNYRKDGNFGLQELGLKNLTEILNGGVYVDQNKFLCYADTIHWQDIVRNPWPSNLTLVSTNGSSGCGRCHKSCTGRCWGPTENHCQTLTRTVCAEQCDGRCYGPYVSDCCHRECAGGCSGPKDTDCFACMNFNDSGACVTQCPQTFVYNPTTFQLEHNFNAKYTYGAFCVKKCPHNFVVDSSSCVRACPSSKMEVEENGIKMCKPCTDICPKACDGIGTGSLMSAQTVDSSNIDKFINCTKINGNLIFLVTGIHGDPYNAIEAIDPEKLNVFRTVREITGFLNIQSWPPNMTDFSVFSNLVTIGGRVLYSGLSLLILKQQGITSLQFQSLKEISAGNIYITDNSNLCYYHTINWTTLFSTINQRIVIRDNRKAENCTAEGMVCNHLCSSDGCWGPGPDQCLSCRRFSRGRICIESCNLYDGEFREFENGSICVECDPQCEKMEDGLLTCHGPGPDNCTKCSHFKDGPNCVEKCPDGLQGANSFIFKYADPDRECHPCHPNCTQGCNGPTSHDCIYYPWTGHSTLPQHARTP
5.98 | ErbB3/4-IgG (antibody, heterodimeric ECD-human IgG Fc immunoadhesin (mixture with homodimers)) chain 1: not shown chain 2: QSVCAGTENKLSSLSDLEQQYRALRKYYENCEVVMGNLEITSIEHNRDLSFLRSVREVTGYVLVALNQFRYLPLENLRIIRGTKLYEDRYALAIFLNYRKDGNFGLQELGLKNLTEILNGGVYVDQNKFLCYADTIHWQDIVRNPWPSNLTLVSTNGSSGCGRCHKSCTGRCWGPTENHCQTLTRTVCAEQCDGRCYGPYVSDCCHRECAGGCSGPKDTDCFACMNFNDSGACVTQCPQTFVYNPTTFQLEHNFNAKYTYGAFCVKKCPHNFVVDSSSCVRACPSSKMEVEENGIKMCKPCTDICPKACDGIGTGSLMSAQTVDSSNIDKFINCTKINGNLIFLVTGIHGDPYNAIEAIDPEKLNVFRTVREITGFLNIQSWPPNMTDFSVFSNLVTIGGRVLYSGLSLLILKQQGITSLQFQSLKEISAGNIYITDNSNLCYYHTINWTTLFSTINQRIVIRDNRKAENCTAEGMVCNHLCSSDGCWGPGPDQCLSCRRFSRGRICIESCNLYDGEFREFENGSICVECDPQCEKMEDGLLTCHGPGPDNCTKCSHFKDGPNCVEKCPDGLQGANSFIFKYADPDRECHPCHPNCTQGCNGPTSHDCIYYPWTGHSTLPQHARTP
